These results are taken from patent publication US20260103503A1.

Assay [1] addresses NY-ESO-1 peptide on HLA-A*02:01 (human). Description: SPR as tabulated in Table 2 (BIAcore analysis); reference TCR; soluble, other. (In SPR one partner is held on a chip, and binding of the other changes the refractive index at the surface.)
The target in assay [2] is Tm NY-ESO (human). Briefly: flow cytometry, tetramer staining of transduced CD4+ T cells; nt control Q1 0.020. In general terms: Flow cytometry measures light scatter and fluorescence of single cells or particles in a stream.
Assay [3] addresses Tm NY-ESO (human). Briefly: flow cytometry, tetramer staining of transduced CD4+ T cells; nt control Q2 0.56.
Assay [4] has as its target Tm NY-ESO (human). Description: flow cytometry, tetramer staining of transduced CD8+ T cells; nt control Q2 0.79.
The target in assay [5] is Tm NY-ESO (human). Briefly: flow cytometry, tetramer staining of transduced CD8+ T cells; nt control Q1 0.084.

1G4: in assay [1], the Kd (in general, the equilibrium constant for the complex coming apart) stood at 14.2 µM; the off-rate (koff) (commonly the rate constant with which the complex falls apart) came out at 0.12 s⁻¹; the kon (as a rule, a measure of how fast the partners come together) was determined as 17000 M⁻¹ s⁻¹.
As to 1G4LY TCR on transduced T cells, in the assay with Tm NY-ESO (human) [2], the Q1 (Tm NY-ESO+ CD4-), percent of cells was determined as 0.89%. For the same substance, in the assay with Tm NY-ESO (human) [3], the Q2 (Tm NY-ESO+ CD4+), percent of cells is 63.2%. In the assay with Tm NY-ESO (human) [4], this substance had a Q2 (Tm NY-ESO+ CD8+), percent of cells of 64.9%. Besides, the Q1 (Tm NY-ESO+ CD8-), percent of cells in the assay with Tm NY-ESO (human) [5] was found to be 2.53%.
